Measurements as given in the DeepSol protein solubility set.

Assay: soluble on expression in E. coli; label from the status in PepcDB or PDB records

In the case of “MIPLFNFAIKQFMNQRMKNIRGFMEHPIETQQRVLKNLLQQAALTEWGKTHGYKDIQSNEQFAQQVPVSTYETFYPWIERCLKGEQQILWQSDIDWFSKSSGTTNAKSKFIPVSKESLKDCHYKGGMDLLTLYFDNAPESKLFQGKSLAVGGSCSPNPHRDNSKIGDISAVIMANLPTWAQYARTPSIQTALMNEWEAKIDKLAEECSKENVTNLSGVPTWAVLLLEYMLEKSGKENMLEIWPHFECFFHGAVSFHPYKTAFQKFFPSDKVRYMETYNASEGFFGVQDDLSRDDLLLYLDHGIYYEFIPIDEIDAEFPKTISLEQVQLNEAYALVISTNSGLWRYNVGDVVRFTSITPYRIKITGRTKHYINVFGEELMVENAEMAVSKACEATNAVLANFTAGPIYFNNENKGGHEWIIEFETAPGDKDRFTQLLDQFLKELNSDYEAKRYKDMALLLPTIHFVPEGTFYKWLKLKGKLGGQHKVPRLSNNREYLEDILTKCL”, the “soluble on expression in E. coli” value is reported as “not soluble”.
For “SNAMVKDRQIQKTKVAIYNAFISLLQENDYSKITVQDVIGLANVGRSTFYSHYESKEVLLKELCEDLFHHLFKQGRDVTFEEYLVHILKHFEQNQDSIATLLLSDDPYFLLRFRSELEHDVYPRLREEYITKVDIPEDFLKQFLLSSFIETLKWWLHQRQKMTVEDLLKYYLTMVER”, the “soluble on expression in E. coli” value was “soluble”.
For “MARRGNKAIRATVSMKIALSEPLLVLVNNYVKALRFTLFWLKENVPNPEEKGVLSKVHEALYEKLREEYNLPSKVAEDCYREALATYKGWYNNPRRGRFPRVYRPTVWLTPRASYNVDFEAMTVRIVSVGELSILGYPRNLKEYMGWKMKEARLVIRDDKAFLKVVFEKEEQKVEPKESIAVDINMAEVVVGKDDKNYVRIPTRLEEVHHWKSLAERLLKKYPRRWRENKRILYRVRSFHLKARRIMEDFARKVGKWVVDVAKRMGVNVIKLESLKNLIKSVEKLSKEFRDKLYLMQYRRLQYWISWQAKKRGMTVEFVNPSYSSVSCPKCGKRMVEVSHRWFKCSCGYENDRDVIAIMNLNGRGSLTLSTAPQMRDVNPNRLEHHHHHH”, the “soluble on expression in E. coli” value was “not soluble”.
For “MFGGIENVKAAEPKVYQFDFGSGSMEPGYIGVRASDRYDRSKGYGFQTPENMRDVAASGAGVKSDAVEFLAYGTKSNNTFNVDLPNGLYEVKVTLGNTARASVAAEGVFQVINMTGDGAEDTFQIPVTDGQLNLLVTEGKAGTAFTLSALKIKKLSDQPVTNRTIYVGGDSTVCNYYPLNSSKQAGWGQMLPHYIDKHTFQVRNMASGGQIARGFRNDGQLEAILKYIKPGDYFMLQLGINDTNPKHKESEAEFKEVMRDMIRQVKAKGADVILSTPQGRATDFTSEGIHSSVNRWYRASILALAEEEKTYLIDLNVLSSAYFTSIGPERTLGLYMDGDTLHPNRAGADALARLAVQELKRQGIAGFLEHHHHHH”, the “soluble on expression in E. coli” value was “soluble”.
For “MRKVTVSLIKADVGSVAGHTTVPDELKKAAEENLKNAVDSGLIIDFRVFNAGDDLELLMTHDKGVDSEEIHRLAWETFEKAAGIAKELKLYGAGQDLLKDAFSGNVRGLGPGVAEMEFTERKAEPVIAFMMDKTEPGAFNMPIFRMFADPFNTAGLVIDPTMHQGFVFEIWDIKESKRVFMRTPEEMYDILALIGGKSRFVIKRVYPKEGGKLPADEPVAVISTEKLYEVAGEYVGKDDPVALVRAQSGLPAVGEVLEPFAFPHLVSGWMRGSHNGPIMPVPFKYSKCTRFDGPPRCIAAGFQLANGKIIGPVDMFDDPAFDYTRQKAMEIAEYMRRHGPFEPHRLPSEDMEYTTLPKVLEKLKGRFEEV”, the “soluble on expression in E. coli” value was “not soluble”.
For “MSLKQEKLALVESALEDFYGDQQFASSLRESVLYSIHAGGKRIRPFLLLEVLEALQVTIKPAHAQVATALEMIHTGSLIHDDLPAMDDDDYRRGRLTNHKKFGEAMAILAGDALFLDSYALIAQADLPSQIKVDLIANLSLASGSLGMVAGQVLDMEGEHQHLSLEELQTIHANKTGKLLAYPFQAAAIIAELSPEMQVKLKTVGELIGLAFQVRDDVLDVTASFEEIGKTPQKDLQAEKSTYPALLGLEESIAFCNQTLDQANEKLEEIAQQLPFETESIVSVVESLRINGEGHHHHHH”, the “soluble on expression in E. coli” value was “soluble”.
In the case of “MASRVDETTVPSYYYYVDPETTYTYQQPNPLQDLISVYGLDDISRQVARTNLDGTKAVKLRKSYKNQIADLSGKFSTIPTRENGKGGQIAHILFQNNPDMMIQPPQQGQNMSEQQWREQLRNRDIALFQPPNFDWDLCSSVLSQFERSYPSEFANQNQGGAQAPFDIDDLAFDLDGTGKSQSGSNSGNNSKKRKNKSSGSSMATPTHSDSHEDMKRRRLE”, the “soluble on expression in E. coli” value is reported as “soluble”.
For “MFFKRGKILSAGRLNKKSLGIVMLLSVGLLLAGCSGSKSSDTGTYSGSVYTVKRGDTLYRISRTTGTSVKELARLNGISPPYTIEVGQKLKLGGAKSSSITRKSTAKSTTKTASVTPSSAVPKSSWPPVGQRCWLWPTTGKVIMPYSTADGGNKGIDISAPRGTPIYAAGAGKVVYVGNQLRGYGNLIMIKHSEDYITAYAHNDTMLVNNGQSVKAGQKIATMGSTDAASVRLHFQIRYRATAIDPLRYLPPQGSKPKC”, the “soluble on expression in E. coli” value was “not soluble”.
In the case of “MGSSHHHHHHSSGLVPRGSHMAKVNAFSKKIGWIEFITGPMFAGKTAELIRRLHRLEYADVKYLVFKPKIDTRSIRNIQSRTGTSLPSVEVESAPEILNYIMSNSFNDETKVIGIDEVQFFDDRICEVANILAENGFVVIISGLDKNFKGEPFGPIAKLFTYADKITKLTAICNECGAEATHSLRKIDGKHADYNDDIVKIGCQEFYSAVCRHHHKVPNRPYLNSNSEEFIKFFKNKKRNKNI”, the “soluble on expression in E. coli” value is reported as “soluble”.
In the case of “MDIKVVKGSITEVDADVIVNPANSRGLMGGGVAVVIKRLGGEEIEREAVEKAPIPVGSAVLTTAGKLKFKGVIHAPTMEEPAMPSSEEKVRKATRAALELADKECFKIVAIPGMGTGVGGVPKEVAARAMVEEIRKFEPKCLEKVILVDIDEEMVEAWEKVLGLRLEHHHHHH”, the “soluble on expression in E. coli” value is reported as “soluble”.
In the case of “MKKILIVDDEKPISDIIKFNMTKEGYEVVTAFNGREALEQFEAEQPDIIILDLMLPEIDGLEVAKTIRKTSSVPILMLSAKDSEFDKVIGLELGADDYVTKPFSNRELQARVKALLRRSQ”, the “soluble on expression in E. coli” value is reported as “soluble”.
With “SGTQALLVEERARLERLLGARLEAAADQALARLVEANPQPVHLICDLTHRLLACSPARAAQFGVPLGELLDRSLWPYCSEEILRQEATLEELGWRELLAPPALEFASGANASAIVPIRRSRCRWTRMTLSDGRAVRLVETL” the “soluble on expression in E. coli” value was “not soluble”.
With “RGKDITVWFQRLLDRMTDFFSSLSGRRKVCSKPRFRVRRTTNPAAKKSGTDPKIRETKTSIDEILDKIRISGYASLTAEEKRHLFDQSKRL” the “soluble on expression in E. coli” value was “not soluble”.
With “MGSDKIHHHHHHVPQRTSFNGSTRPAWKNTTALIRNPKIASILATGGTGMVHAALQSGNPSMGVGAGNGAVYIDHTAFLDRAVEDILLSKRFDNSMVCATENSAVVEAPIYDKWLQMIQDKGAYLVPKKDYQKLADFVFNDKRGVNGPVAGMSARWICEHAGVTLSEGKDVLLFELDPKNIGEKLSSEKLSPLLSVYKAKDREDGIRIVKALLDYQGAGHNAAIQIGSQNDPFIDEYGKAVQASRVLVNQPDALGGIGDIYSDGLRPSLILGTGSWGKNSLSHNLSTSDLLNIKTIAKQRNRPQWIRLPEKIFTKKTSLPIFQMKMSRKSAGPLSSLTRAWSSSTSLTRSMNSWL” the “soluble on expression in E. coli” value was “not soluble”.
With “MGSDKIHHHHHHMRVNMYLSRQIQPLVSRLLKQFPAVLVTGARQVGKSTLLKHIAKDYAYLTFDDPLLLEQAKQEPRLFFLNHAGNVILDEVQYAQELFSLLKLEIDKQQKNGMFLLSGSQAFELMQNVSETLAGRIAILKLQGLSLREILNVEFYLPFIPSRDYLASREKMLKSPENIWQIIHKGDMPRLYQQETDWEIYYSSYVSTYIERDVRQLTNITNTTDFTRFMVALASRSGELLNYSNVAQEVGVSNETIKRWTAILQTSGIIYLLQPYSNNHLKRTIKTPKIYFLNTGLMAYLTKWLTPETISKGAKSGQFFESFVVSEIIKSFTNNGIEPPLYFYRNTNQKEIDLIIEYDRTIYPIEIKTTANPNKKMAKSFALLNSLGKESTIGLGVIINQYPNKHYLAENLVALPVRYL” the “soluble on expression in E. coli” value was “not soluble”.
For “SVIGRIHSFESCGTVDGPGIRFITFFQGCLMRCLYCHNRDTWDTHGGKEVTVEDLMKEVVTYRHFMNASGGGVTASGGEAILQAEFVRDWFRACKKEGIHTCLDTNGFVRRYDPVIDELLEVTDLVMLDLKQMNDEIHQNLVGVSNHRTLEFAKYLANKNVKVWIRYVVVPGWSDDDDSAHRLGEFTRDMGNVEKIELLPYHELGKHKWVAMGEEYKLDGVKPPKKETMERVKGILEQYGHKVMF”, the “soluble on expression in E. coli” value was “soluble”.
